Measured values reported in IntAct's records for PubMed 16600184.

B1: Phospholipid-transporting ATPase accessory subunit LEM3 (Saccharomyces cerevisiae), P42838 (parent)
chain: MVNFDLGQVGEVFRRKDKGAIVSGDNPEEEEDVDASEFEEDEVKPVRTKNRRPKEDAFTQQRLAAINPVLTPRTVLPLYLLIAVVFVIVGGCILAQNSKVDEVTIYYQDCMTNATSSWSDIPSEHWQFVFHKYKTYNTAPQWRFVDDESDDFTKQRGTCQIRFTTPSDMKNNVYLNYVLEKFAANHRRYVLSFSEDQIRGEDASYETVHDATGINCKPLSKNADGKIYYPCGLIANSMFNDTFPLQLTNVGDTSNNYSLTNKGINWESDKKRYKKTKYNYTQIAPPPYWEKMYPDGYNETNIPDIQDWEEFQNWMRPGAFDKITKLIRINKNDTLPAGEYQLDIGLHWPVLEFNGKKGIYLTHGSHLGGRNPFLGIVYLIGGCICAAMALILLTFWLFGGRKIADASSLSWNMK

Variants of: B1
Details: with atc5_yeast DNF1, P32660
Sequence of atc5_yeast DNF1, P32660 (P32660 whole entry): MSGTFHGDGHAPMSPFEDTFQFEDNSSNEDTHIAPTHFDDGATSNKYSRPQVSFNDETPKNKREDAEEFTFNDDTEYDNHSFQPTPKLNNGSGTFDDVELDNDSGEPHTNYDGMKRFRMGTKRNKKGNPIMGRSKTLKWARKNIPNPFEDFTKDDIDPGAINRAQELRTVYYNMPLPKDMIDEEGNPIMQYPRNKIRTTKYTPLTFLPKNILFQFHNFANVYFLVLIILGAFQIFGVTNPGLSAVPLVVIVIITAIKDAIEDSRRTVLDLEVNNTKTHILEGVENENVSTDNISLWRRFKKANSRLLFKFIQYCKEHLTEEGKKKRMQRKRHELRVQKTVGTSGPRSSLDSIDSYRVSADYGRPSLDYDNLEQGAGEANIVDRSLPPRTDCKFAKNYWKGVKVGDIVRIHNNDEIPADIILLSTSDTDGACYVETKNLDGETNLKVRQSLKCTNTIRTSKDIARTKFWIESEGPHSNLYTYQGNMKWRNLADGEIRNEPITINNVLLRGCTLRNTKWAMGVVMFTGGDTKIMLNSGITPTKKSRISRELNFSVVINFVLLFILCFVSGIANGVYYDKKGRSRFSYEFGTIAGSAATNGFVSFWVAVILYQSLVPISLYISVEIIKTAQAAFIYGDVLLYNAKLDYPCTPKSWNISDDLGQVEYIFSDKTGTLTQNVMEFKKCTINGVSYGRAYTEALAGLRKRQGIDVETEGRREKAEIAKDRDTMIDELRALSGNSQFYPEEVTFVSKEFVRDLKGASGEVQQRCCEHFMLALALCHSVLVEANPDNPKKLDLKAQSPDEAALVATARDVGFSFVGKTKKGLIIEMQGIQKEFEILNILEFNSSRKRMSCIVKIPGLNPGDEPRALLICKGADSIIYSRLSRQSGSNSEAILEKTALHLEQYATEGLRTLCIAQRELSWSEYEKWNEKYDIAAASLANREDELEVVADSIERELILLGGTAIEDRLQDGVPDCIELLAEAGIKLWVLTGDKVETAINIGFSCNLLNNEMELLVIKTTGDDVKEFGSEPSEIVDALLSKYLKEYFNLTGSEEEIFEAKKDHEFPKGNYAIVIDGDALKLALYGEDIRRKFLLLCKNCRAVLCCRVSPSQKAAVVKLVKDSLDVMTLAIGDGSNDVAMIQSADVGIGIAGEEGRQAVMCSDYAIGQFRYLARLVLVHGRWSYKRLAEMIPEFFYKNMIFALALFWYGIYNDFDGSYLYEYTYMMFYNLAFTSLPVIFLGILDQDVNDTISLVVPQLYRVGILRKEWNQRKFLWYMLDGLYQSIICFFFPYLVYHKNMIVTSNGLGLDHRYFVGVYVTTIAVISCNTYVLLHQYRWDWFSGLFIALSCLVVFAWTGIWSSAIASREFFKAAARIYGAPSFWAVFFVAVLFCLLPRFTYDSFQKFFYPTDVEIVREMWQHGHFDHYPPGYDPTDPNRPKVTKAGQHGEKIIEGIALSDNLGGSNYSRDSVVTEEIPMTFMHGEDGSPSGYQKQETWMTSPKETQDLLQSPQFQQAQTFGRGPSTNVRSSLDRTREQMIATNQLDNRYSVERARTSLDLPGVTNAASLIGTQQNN

Variant	effect of a mutation on the interaction
R316W	with no effect

Variants of: B1
Details: with atc4_yeast DNF2, Q12675
Sequence of atc4_yeast DNF2, Q12675 (Q12675 whole entry): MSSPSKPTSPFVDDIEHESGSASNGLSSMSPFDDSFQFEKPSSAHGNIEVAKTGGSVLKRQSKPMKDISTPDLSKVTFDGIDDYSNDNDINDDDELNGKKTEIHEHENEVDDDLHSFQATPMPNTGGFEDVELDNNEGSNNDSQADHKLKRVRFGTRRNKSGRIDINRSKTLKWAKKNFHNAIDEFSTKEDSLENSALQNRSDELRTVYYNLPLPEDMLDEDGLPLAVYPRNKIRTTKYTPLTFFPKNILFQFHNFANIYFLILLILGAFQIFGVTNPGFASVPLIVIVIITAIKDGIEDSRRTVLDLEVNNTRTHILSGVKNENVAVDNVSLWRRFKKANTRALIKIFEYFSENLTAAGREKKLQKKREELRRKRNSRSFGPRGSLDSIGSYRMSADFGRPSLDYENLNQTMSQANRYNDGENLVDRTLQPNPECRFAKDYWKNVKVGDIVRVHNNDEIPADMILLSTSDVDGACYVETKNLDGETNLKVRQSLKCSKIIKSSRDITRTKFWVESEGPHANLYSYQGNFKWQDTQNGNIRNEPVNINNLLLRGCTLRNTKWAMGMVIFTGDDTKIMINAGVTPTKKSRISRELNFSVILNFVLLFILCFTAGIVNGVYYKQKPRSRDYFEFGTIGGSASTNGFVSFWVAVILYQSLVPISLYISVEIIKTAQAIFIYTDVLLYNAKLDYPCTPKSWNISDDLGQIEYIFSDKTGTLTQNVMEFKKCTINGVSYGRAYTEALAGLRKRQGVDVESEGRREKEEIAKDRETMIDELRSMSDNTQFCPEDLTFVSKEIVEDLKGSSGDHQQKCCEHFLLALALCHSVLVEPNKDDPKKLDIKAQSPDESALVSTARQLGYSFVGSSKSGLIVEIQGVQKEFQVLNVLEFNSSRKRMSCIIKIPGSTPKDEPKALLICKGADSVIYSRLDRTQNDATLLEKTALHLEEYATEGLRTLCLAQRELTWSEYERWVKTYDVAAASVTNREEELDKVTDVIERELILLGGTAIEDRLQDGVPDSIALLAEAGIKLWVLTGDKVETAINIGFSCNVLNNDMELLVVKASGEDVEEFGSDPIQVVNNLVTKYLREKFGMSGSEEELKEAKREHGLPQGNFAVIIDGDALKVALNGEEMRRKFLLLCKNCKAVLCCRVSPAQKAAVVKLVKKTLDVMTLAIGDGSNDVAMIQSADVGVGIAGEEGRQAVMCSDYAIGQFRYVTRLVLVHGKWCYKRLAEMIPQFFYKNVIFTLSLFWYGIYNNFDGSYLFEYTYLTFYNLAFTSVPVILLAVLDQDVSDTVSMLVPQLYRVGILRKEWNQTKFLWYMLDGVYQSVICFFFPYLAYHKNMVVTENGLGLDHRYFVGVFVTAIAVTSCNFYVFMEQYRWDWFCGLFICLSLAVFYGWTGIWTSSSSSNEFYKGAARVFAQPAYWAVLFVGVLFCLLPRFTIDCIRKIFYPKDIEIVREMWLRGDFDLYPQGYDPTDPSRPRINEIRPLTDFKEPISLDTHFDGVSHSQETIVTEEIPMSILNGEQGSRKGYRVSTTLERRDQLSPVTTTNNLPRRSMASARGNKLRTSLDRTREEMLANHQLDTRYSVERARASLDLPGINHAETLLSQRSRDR

Variant	effect of a mutation on the interaction
R316W	with no effect
